B1: CPT II variant P50H (Homo sapiens; P50H) (protein)
chain: SAGSGPGQYLQRSIVPTMHYQDSLHRLPIPKLEDTIRRYLSAQKPLLNDGQFRKTEQFCKSFENGIGKELHEQLVALDKQNKHTSYISGPWFDMYLSARDSVVLNFNPFMAFNPDPKSEYNDQLTRATNMTVSAIRFLKTLRAGLLEPEVFHLNPAKSDTITFKRLIRFVPSSLSWYGAYLVNAYPLDMSQYFRLFNSTRLPKPSRDELFTDDKARHLLVLRKGNFYIFDVLDQDGNIVSPSEIQAHLKYILSDSSPAPEFPLAYLTSENRDIWAELRQKLMSSGNEESLRKVDSAVFCLCLDDFPIKDLVHLSHNMLHGDGTNRWFDKSFNLIIAKDGSTAVHFEHSWGDGVAVLRFFNEVFKDSTQTPAVTPQSQPATTDSTVTVQKLNFELTDALKTGITAAKEKFDATMKTLTIDCVQFQRGGKEFLKKQKLSPDAVAQLAFQMAFLRQYGQTVATYESCSTAAFKHGRTETIRPASVYTKRCSEAFVREPSRHSAGELQQMMVECSKYHGQLTKEAAMGQGFDRHLFALRHLAAAKGIILPELYLDPAYGQINHNVLSTSTLSSPAVNLGGFAPVVSDGFGVGYAVHDNWIGCNVSSYPGRNAREFLQCVEKALEDMFDALEGKSIKS
notes: made in house; host or cells: Escherichia coli BL21Gold DE

Experiments:
CPT II S113L = system: CPT II S113L; design: method as in PMID 27123472; settings: in vitro; cited from earlier work
CPT II WT = system: CPT II WT; design: method as in PMID 26477380; settings: cited from earlier work
[1] = Thermosensitivity of enzyme activity of recombinant CPT II enzymes (activity half-life after incubation); assay type: physicochemical; settings: 30 °C; 1 mg/mL enzyme
Procedure: To evaluate the enzyme behavior under different temperature conditions that are relevant under physiological conditions, we chose 30 (cold), 37 (normal), 40 (moderate fever) and 42 °C (high fever) for the experiments. The enzyme variants were expressed recombinantly in E. coli, carried a N-terminal histidine-tag and were purified by standard chromatography in the presence of a detergent (for experimental details, see Section 4.1 and Section 4.2). The impact of temperature was investigated by incubating purified CPT II variants at appropriate temperatures and determining their enzymatic activity after defined incubation periods. The enzyme assay was based on an adaptation of Rufer et al. for the transfer reaction of the palmitic acid from palmitoyl-CoA to L-carnitine (see Section 4.3).
Before activity measurements, the storage buffer of the enzymes was replaced with assay buffer (50 mM KH2PO4, 120 mM KCl, 1 mM EDTA-Na4) using vivaspin turbo 4 tubes (Satorius Stedim biotech GmbH, Göttingen, Germany) at 4 °C. […] After that, the protein concentration was determined using bicinchoninic acid (BCA) protein assay kit (Thermo Fisher Scientific GmbH, Berlin, Germany). […] The reverse reaction of CPT II was detected with the enzyme activity assay. […] The released CoA was then detected by the reaction of the free thiol group with DTNB, forming 5-mercapto-(2-nitrobenzoic acid). […]

[2] = Onset of aggregation by scattered light back reflection during heating ramp; assay type: physicochemical; settings: assay buffer; heating ramp 15 °C to 80 °C
Procedure: Supplementary materials can be found at https://www.mdpi.com/article/10.3390/ijms22094831/s1, Figure S1: Scattered light back reflection as measure for aggregation during the heating ramp from 15 °C to 80 °C of CPT II WT (black) and the variants P50H (red), S113L (blue) and Y479F (green) in assay buffer (magenta). The light scattering data were obtained simultaneously with nanoDSF data using the back reflection technology in a Prometheus NT.48 device. The unfolding of proteins leads to display of hydrophobic regions of the protein on the surface, which is followed by hydrophobic interaction of the protein molecules resulting in aggregation events. These aggregates are then detected via light scattering. […] The data allow the detection of onset of aggregation (Tagg) which differs clearly among the variants. The Tagg for WT is 38 °C, Y479F is 37 °C, S113L is 35 °C and P50H is 32 °C. […] Figure S2: The first derivatives of the transition curves of WT and the variants resulting from the ratio 350/330 nm were plotted against the temperature. The black, red, blue and green solid lines show the curves of WT and variants P50H, S113L and Y479F measured in assay buffer, respectively. The black, red, blue and green dashed lines show the maxima of the values of the first derivatives of the ratio 350 nm/330 nm of WT and variants P50H, S113L and Y479F, respectively. Figure S3: The effect of amino acid exchange in absence and presence of n-octyl-β-d-glucopyranoside (β-OG) on the stability of CPT II (1 mg/mL) assessed by nanoDSF. The TM of WT (37 °C) in buffer was used as reference value (ΔTM = 0 °C) to determine the ΔTM for the variants and the ΔTM for WT and variants in presence of β- OG. Error bars are SD derived from three independent experiments. Table S1. Comparison of the mean values of the half-lives (t1/2) of CPT II WT and the variants at 30 °C with the half-lives at 37, 40 or 42 °C. The differences of the half-lives for each CPT II enzyme between 37 and 40 or 42 °C as well as 40 and 42 °C are not significant. Number of experiments for each variant (n ≥ 3). Table S2. Comparison of the mean values of the half-lives (t1/2) between CPT II WT and the variants Y479F, S113L and P50H at 30, 37, 40 or 42 °C. n ≥ 3. Table S3. […] Comparison of the ∆TM-values of CPT II WT and the variants Y479F, S113L and P50H in buffer or in presence of 0.25 mM cardiolipin or 1% n-octyl-β-d-glucopyranoside (β-OG) assessed by nanoDSF (n ≥ 3). […] Comparison of the transition temperatures (TM) of WT and the variants Y479F, S113L and P50H in buffer with of 0.25 mM cardiolipin or 1% n-octyl-β-d-glucopyranoside (β-OG) assessed by nanoDSF (n ≥ 3). […]

[3] = nanoDSF thermostability of recombinant CPT II enzymes in assay buffer; assay type: physicochemical; settings: assay buffer; 1 mg/mL protein; nanoDSF
Procedure: The protein stability was investigated applying nano differential scanning fluorimetry (nanoDSF) using a protein concentration of 1 mg/mL in assay buffer. […] The heating rate has been set to 1 °C per min. A heating ramp from 15 to 95 °C was determined. The nanoDSF data were obtained using a Prometheus NT.48 device. First derivatives were calculated using PR.ThermControl software (NanoTemper Technologies GmbH, Munich, Germany). Experiments were performed at least three times independently as double determination.

[4] = substrate: C[N+](C)(C)C[C@H](O)CC(=O)[O-]; assay: Determination of the kinetic parameters kcat and KM; assay type: biochemical, human; settings: other: P50H, L-carnitine varied, absence of CL, 25 °C
Procedure: Before activity measurements, the storage buffer of the enzymes was replaced with assay buffer (50 mM KH2PO4, 120 mM KCl, 1 mM EDTA-Na4) using vivaspin turbo 4 tubes (Satorius Stedim biotech GmbH, Göttingen, Germany) at 4 °C. The pH of assay buffer was adjusted with KOH to 7.4. The storage buffer was diluted at least 1:500 in assay buffer. In addition, before each experimental set up, the protein samples were centrifuged at 16,000× g for 5 min at 4 °C to remove any micro-aggregates. After that, the protein concentration was determined using bicinchoninic acid (BCA) protein assay kit (Thermo Fisher Scientific GmbH, Berlin, Germany). The enzyme activity of recombinant CPT II was performed following Rufer et al. with modifications described elsewhere. […] After pre-conditioning the mixture to 25 °C for 2 min, the reaction was started by adding 15 nM of recombinant enzyme. The reverse reaction of CPT II was detected with the enzyme activity assay. CPT II catalyzed the transfer of fatty acid residue from Pal-CoA to L-carnitine with release of CoA and Pal-carnitine. The released CoA was then detected by the reaction of the free thiol group with DTNB, forming 5-mercapto-(2-nitrobenzoic acid). This compound has a molar extinction coefficient of 13,600 M^−1 cm^−1 at a wavelength of 410 nm, and its formation was followed spectroscopically. […] The slope of the progress curve was used to determine the reaction velocity.
It is assumed that the reaction catalyzed by CPT II represents a ping-pong mechanism or compulsory order ternary-complex mechanism.
The kinetic parameters were determined by evaluating the obtained v/S characteristic according to the Michaelis–Menten Equation (1). The […] kcat was calculated using Equation (2):(1) v=Vmax∗[S]/KM+[S] (2) kcat=Vmax/cenzyme

| Molecule | Inhibition by malonyl-CoA (CPT II S113L) | Inhibition by malonyl-CoA (CPT II WT) | Time to complete loss of activity [1] | Onset of aggregation (Tagg) [2] | TM in Buffer [3] | Km [4] | kcat [4] | kcat/Km [4] |
| --- | --- | --- | --- | --- | --- | --- | --- | --- |
| CC(C)(COP(=O)(O)OP(=O)(O)OC[C@H]1O[C@@H](n2cnc3c(N)ncnc32)[C@H](O)[C@@H]1OP(=O)(O)O)[C@@H](O)C(=O)NCCC(=O)NCCSC(=O)CC(=O)O [malonyl-CoA, Malonyl-CoA] | abnormal enzyme inhibition | not inhibited |  |  |  |  |  |  |
| B1 |  |  | ≤ 25 min | 32 °C | 26.2 ± 0.3 °C | 12.8 ± 2.7 mM | 138 ± 4.9 s⁻¹ | 10800 ± 2600 M⁻¹ s⁻¹ |

Source: paper PMC8125234, “Cardiolipin Stabilizes and Increases Catalytic Efficiency of Carnitine Palmitoyltransferase II and Its Variants S113L, P50H, and Y479F” (International Journal of Molecular Sciences, 2021)
